Laboratory results from the supplement of paper PMC12764529.
± gives the half width of the 95% confidence interval.

Assays:
[1] = folding stability dG unfold (combined trypsin and chymotrypsin); higher = more stable
How it was run: (§1)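 Unfolding free energy was derived, per protease or combined, against a sequence-predicted unfolded-state K50 and a shared folded-state K50, starting from K50 inferred by Bayesian fitting of sequencing counts. Digestion with trypsin and chymotrypsin was carried out on designed mini-proteins under 80 residues without cysteine in a PA-tagged cDNA display construct. Only designs with AlphaFold2 dimer inter-PAE above 15 were kept.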

[2] = folding stability dG unfold from chymotrypsin proteolysis; higher = more stable
How it was run: as §1

[3] = folding stability dG unfold from trypsin proteolysis; higher = more stable
How it was run: as §1

Sequence	folding stability dG unfold [1] [kcal/mol]	folding stability dG unfold [2] [kcal/mol]	folding stability dG unfold [3] [kcal/mol]
SAGGSAGGSASPSYLLTVTVYRPGGNPLSRRVFPPSVSPAEVEAWLATLPSDYSWEVSREPVSAGGSAGGSA [r18_431_JUSTAS]	2.59 ± 0.048	2.95 ± 0.022	0.957 ± 0.051
SAGGSAKRVIVIGSKEERERAREAAEKENLEVVEIEGPVEEALAKLKELFPEIDEIVIVLPEEEEESAGGSA [r15_712_TrROS_Hall]	0.899 ± 0.19	0.768 ± 0.14	0.68 ± 0.14
SAGGSMADPGKAKAKVVIGGVEFEFDTTVTVADDPDGRKVLIFTFPDGTPVEIPLEDAEKILEVEGSAGGSA [r2_297_TrMRF]	1.43 ± 0.067	1.66 ± 0.03	0.996 ± 0.024
SAGMIEKLIREAFPAGAKSIRIEVRRLPDGSLLVRIDIHFDDPEVRRALADRIEELLGLPIPDLRVSPDSAG [r5_542_TrMRF]	2.81 ± 0.042	3.067 ± 0.028	2.26 ± 0.035
SAGGSAGGSGIKITEYKINPETGTIEKTEIYIKPIPNTNKLKIEKKTKSIPILPDQKPDLSLDSAGGSAGGS [r12_700_TrMRF]	0.412 ± 0.27	0.809 ± 0.36	-0.235 ± 0.18
SLKNGDPIMVKIEIEQYNPKNGKPQEQKHSIMIPPGDPVTINIPGLPPGYKVRVEIYPMDGKPIGEHTIPSA [r9_478_TrROS]	1.48 ± 0.14	1.14 ± 0.047	1.73 ± 0.12
SAGGSSPAARRLAKRIAKLMMKKHPPGEKRTVEIELPDGVEIKATFNNNGNIDDIEIRSPDGEPIISAGGSA [r2_84_TrROS]	0.644 ± 0.36	0.482 ± 0.4	0.771 ± 0.17
SAGGSAGGSAIKEIVKRIEKLFGVDVEPEQEEREVNGGRYPTLPVTVKVPPNANSPALKEASAGGSAGGSAG [r3_427_TrROS]	0.021 ± 0.24	0.636 ± 0.093	-0.555 ± 0.4
PAVPKEYTVTLPNATAKVTLEEYEDFVLATAEVTFPDGAKATVTVTLEPTPDGVKRTVTLNIPPGFGAKLGS [r1_153_TrMRF]	1.65 ± 0.06	1.9 ± 0.03	1.17 ± 0.013
SAGGSAGGSAGGEMRLRISWNHPNGQPQVIEFPVGDIKEFLKKLGIDNIPPDKLTNIEPYSAGGSAGGSAGG [r7_745_TrROS]	1.36 ± 0.094	1.37 ± 0.092	1.25 ± 0.039
SKKVLFIEAKSEEELKAAVKALLDAGYDEIVVSSPEAAKALKELLPDVKVTLVEVKPEKKLSEEEKKKLKSA [r9_639_TrROS_Hall]	1.05 ± 0.26	1.42 ± 0.096	0.505 ± 0.33
SAGGSAGGSAGGSMVKILIEKENELYEIYVPKDEIPLDELVKKAKELFPDIVKIEVFDDSAGGSAGGSAGGS [r4_235_TrMRF]	0.966 ± 0.096	1.1 ± 0.03	0.802 ± 0.039
SAGGSAGGSAGGNIEIFYFPDGYVVITIWDPDEGWRIVITAKIDPGDGKIKEMDIMPVPSAGGSAGGSAGGS [r10_613_TrROS]	2.85 ± 0.19	2.91 ± 0.13	2.67 ± 0.18
SAGGSAGGKPPKFKVEVFIFPESNSVLVKIELPNSTLPFFIDKNGKIKGIKIIGDKVFNVSEGLSAGGSAGG [r6_241_TrMRF]	1.96 ± 0.17	2.17 ± 0.097	1.42 ± 0.12
SAGGSALKIHPDEKVLVKLKNTKKPVEAKVVKVEKLPNNKWVFYVEVKLNGKKVKIPVDGKDVVVASAGGSA [r15_62_TrMRF]	2.45 ± 0.23	2.38 ± 0.07	2.55 ± 0.2
SFLSPGDKFKFPNGNNYRIENFDISYDPGNNNPMIEIELVPLPPPKPEDENKKDPDGKTKTENKYKYKGPSA [r9_914_TrROS]	0.968 ± 0.45	0.879 ± 0.5	0.61 ± 0.28
SAGGSEFEIIEVKDGTVVIRNKKTNELITVKVKIEVKPPPPVVVKKPGEEVTVKEGKKVTVLKEGEKKSAGG [r13_322_TrROS_Hall]	0.498 ± 0.18	0.916 ± 0.13	-0.188 ± 0.18
SAGGDLLKELARELGFNVEIERDPDDGTIRITIRPPEGHYVTITIKIDYDPENGKLKLEIDEIKVSPPSAGG [r13_936_TrROS]	3.7 ± 0.17	3.63 ± 0.14	3.68 ± 0.17
SAGGSANWRPIEIELMIGIKSKEQAKEWAEEIADNFPGIKDVEVEEFPDPDGHVMVAVDVKFYVPESAGGSA [r15_726_TrROS]	0.969 ± 0.075	0.999 ± 0.031	0.755 ± 0.057
SAGGSAGGSMTVTITFAPDESLGPEKLEELLKKAGPDTTIVLSKYDPATGTTSTATIKVEPGSSAGGSAGGS [r12_913_JUSTAS]	1.07 ± 0.07	1.25 ± 0.013	0.697 ± 0.046
SAGGKEEKVVEIEIKKEKLKKSKDGKVYSAEEIAKKLKKELPEENVEVEIVSYDKEKGVVKIKIKVKSAGGS [r16_284_TrROS_Hall]	1.7 ± 0.36	1.74 ± 0.18	1.51 ± 0.12

Sequence	folding stability dG unfold [1] [kcal/mol]	folding stability dG unfold [2] [kcal/mol]	folding stability dG unfold [3] [kcal/mol]
SAGGSAGKTKIEIRPLPDGSYLVLVTSPDGSKSEFIADGPDIPLPELLKKLNLPPDIEVVNAELPESAGGSA [r15_167_TrMRF]	2.98 ± 0.13	3.05 ± 0.056	2.98 ± 0.12
SGSMTIKLTPDSPVEDVVKFIAENPNVNVTLLMPPEMSEELREKFEKALKEANVPKSQKVTFEVVPPGEESA [r9_670_JUSTAS]	3.55 ± 0.15	3.87 ± 0.099	2.6 ± 0.14
SAGGSAGGSAGGEVVVVPLPDGSYVVALPDGTVVVYNPETGRWEERRSEDVVIAPGRPDESAGGSAGGSAGG [r7_656_TrMRF]	2.4 ± 0.03	2.51 ± 0.031	2.09 ± 0.061
SAGGSAGGSAGKKYLIKIEVEKNGKKYTITMSLEELKKLISSPNVKIVKIEIVEVSEEDLSAGGSAGGSAGG [r17_204_TrROS_Hall]	4.98 ± 0.11	5 ± 0.07	4.33 ± 0.15
SAGGSAGGSAGGMPVIEIPIRPDPNGKPRSAEEIASKIKDRFGYPVKIVSVENNHITITVSAGGSAGGSAGG [r17_426_TrROS]	0.707 ± 0.18	0.983 ± 0.066	0.166 ± 0.076
SAGGRIVINLNPENGYLMISIRMPHRRYDPEDGKGKPEPMSMSIMFPPEEIEKFAEEFGMPIEIVPWSAGGS [r8_337_TrROS]	1.56 ± 0.18	1.4 ± 0.16	1.42 ± 0.071
SAGGSAGGSAGGGMTTTTETTTTTFPTNNLTTTTTTTTTLETSTGTTLSSTSTTTVTASSAGGSAGGSAGGS [r10_469_JUSTAS]	1.2 ± 0.072	0.234 ± 0.12	1.96 ± 0.18
SAGGSAKPNEKVKIRIINEDGEEIEIEVEVKPGEKIYLLENGEEVEVKPGEKIEFPPGAKILVEKVSAGGSA [r15_152_TrROS_Hall]	1.1 ± 0.12	1.07 ± 0.02	1.11 ± 0.034
SAGGSAGGSALPDLEFPFELVEEVEVPVYDPLSDEVLGTVRVWKVRVPGGPELTLVEFDPESAGGSAGGSAG [r3_166_TrMRF]	1.35 ± 0.061	1.3 ± 0.047	1.27 ± 0.017
SAGGSAEEDEVVTIRAVLENGEVRELEVKLPEGTRIYIPGTGEVREVPFGDEVPVPANSDLLVEPVSAGGSA [r15_152_TrMRF]	-0.819 ± 0.62	-0.642 ± 0.25	-0.106 ± 0.13
SAGGGSVSTSVTPDPATGLVTVTVTLTRTTPTPSPGTTTTTTTITVTVQVPPSYQPTATITVSVPASLSAGG [r13_450_JUSTAS]	3.72 ± 0.082	3.91 ± 0.12	3.49 ± 0.16
SAGGSAIPFPPGAKVKKIEMHEKKDDNKPRYVMIIKWEGGNIMVFQMDPGDGNFKPIGWVPLDDLKSAGGSA [r15_777_TrROS]	1.95 ± 0.12	2.33 ± 0.058	0.508 ± 0.07
SAGGSAGGGGPGAPAVPTVSINIKIEEGEKVTIRNGTNKDEIIKSTKEEAEKKGKKVTVETVEGSAGGSAGG [r6_869_JUSTAS]	0.883 ± 0.28	1.26 ± 0.24	-0.273 ± 0.28
SAGGFKLKIDDIEFHDDYLVIRLKIEVPVNDQTMKFELTLIIPVPPPPPPKPPVDPEEYRDPDGKWHSAGGS [r8_234_TrROS]	2.63 ± 0.24	2.9 ± 0.062	2.19 ± 0.11
SAGGSAGGSAGEKEITISILVKGEDGRLYAIKMKAKITFDEKTNELKIEIEEISITPLPPSAGGSAGGSAGG [r17_129_TrROS_Hall]	4.32 ± 0.23	4.29 ± 0.16	3.98 ± 0.21
SAGGSAGGSAKKTLTVTVKAEPSEGAPAIAKEVAEKLGLPDAKVLSISYDPETGELTITFEYSAGGSAGGSA [r18_481_TrMRF]	4.61 ± 0.14	4.56 ± 0.097	4.21 ± 0.2
SAGGSAMKLKLTFVADSPEQAEQLAEEYTRLNPELFPGEKDYPLEIEVYVLVAPPLVPPSPEELAGSAGGSA [r15_663_TrMRF]	1.69 ± 0.27	2.12 ± 0.27	1.23 ± 0.051
SAGGPVKLVKVQFINPETGEPVEISGPASKVLEIAEKLGLNVTSVTVIENPNTILVVVPGPNQLVVVTDSAG [r5_521_TrMRF]	1.69 ± 0.11	1.45 ± 0.018	1.82 ± 0.055
SAGGLDGDMKVDEMEHDPNNGTYRYKAEAGDQWWTFEMKVVPVIPPIPISISPEDLQEGNWNISIWFSAGGS [r16_809_TrROS]	2.09 ± 0.2	2.39 ± 0.08	1.46 ± 0.05
SEWVKVKVEIKMPFYNGNKPMPMSIEVEYEVPPNDPGMTPEDLPPEELAKEAIEKAYDYMRKLGLPPDMFSA [r9_516_TrROS]	2.74 ± 0.39	2.97 ± 0.12	2.21 ± 0.19
SAGGMKTTLLKEEELPGGVKRKIYLTENSSGGYYYVVTVTTELEPPAESKVSVSSKKISPEELKKLLSAGGS [r16_45_JUSTAS]	3.32 ± 0.17	3.55 ± 0.069	2.93 ± 0.14
